Laboratory results reported in patent US7148193B2, “Compounds that bind to growth hormone receptor” (Antyra, Inc., priority 1997, dated 2006).
Changes are numbered by the printed parent chain.

What was measured:
[1] = molecular target: T1, rat growth hormone receptor (Rattus norvegicus, UniProt P16310); experiment: Cell proliferation assay (WST-1) in FDC-1 cells stably transfected with rat growth hormone receptor; format: cell-based; conditions: cells with 0.003 μM bovine GH, 18 h, at the concentrations tested
T1 construct: expressed in transfected cells; host or cells: FDC-1 cells
T1 sequence (P16310 19-638): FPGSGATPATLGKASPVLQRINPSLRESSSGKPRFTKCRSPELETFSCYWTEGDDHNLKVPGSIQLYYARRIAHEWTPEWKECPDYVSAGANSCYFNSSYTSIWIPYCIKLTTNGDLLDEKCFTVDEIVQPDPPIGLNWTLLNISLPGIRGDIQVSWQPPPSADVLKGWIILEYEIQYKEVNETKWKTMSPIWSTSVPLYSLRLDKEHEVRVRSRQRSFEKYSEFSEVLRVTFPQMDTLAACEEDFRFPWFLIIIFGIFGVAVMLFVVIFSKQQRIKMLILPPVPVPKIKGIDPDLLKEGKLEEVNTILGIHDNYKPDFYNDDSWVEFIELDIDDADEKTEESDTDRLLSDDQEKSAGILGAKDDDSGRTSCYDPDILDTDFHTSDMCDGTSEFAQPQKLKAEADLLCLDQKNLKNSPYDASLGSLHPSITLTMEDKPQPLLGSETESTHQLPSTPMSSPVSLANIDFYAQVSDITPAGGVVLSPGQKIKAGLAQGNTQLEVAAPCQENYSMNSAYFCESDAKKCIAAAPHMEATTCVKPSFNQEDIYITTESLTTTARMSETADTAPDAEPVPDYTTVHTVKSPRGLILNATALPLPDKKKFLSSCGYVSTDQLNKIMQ
Method: Cells transfected with rat GHR (50,000 cells per well) were incubated with either bovine GH, H5 peptide (SEQ ID NO:8), 447 peptide (SEQ ID NO:11) or control peptide (SEQ ID NO:10) for 18 h at 37° C. Experiments were done in triplicate. Background signal A450=0.15. […] Cells transfected with rat GHR (50,000 cells per well) containing […] bovine GH were incubated with either control peptide (SEQ ID NO:10), H5 peptide (SEQ ID NO:8) or 447 peptide (SEQ ID NO:11) for 18 h at 37° C. Proliferation was measured using WST-1 reagent. The “*” symbol corresponds to the A450 measurement for the cells incubated without GH.
Agonistic and antagonistic activities of the two peptides, H5WT (SEQ ID NO:8) and bP#447 ([…]), were tested in FDC-1 cells stably transfected with the gene encoding the rat growth hormone receptor. The resulting cell line required either IL-3 or GH for growth. The cells were grown in RPMI 1640 medium containing 10% FCS (fetal calf serum) and 20 units of IL-3 per ml. […] activity assays were performed in a total volume of 100 μl in 96 well plates (flat bottom). Cells were seeded at 50,000 cells/well in 50 μl RPMI 1640 (without IL-3) medium containing horse serum instead of FCS to reduce background. To duplicate wells, 50 μl of either growth hormone or peptides at different concentrations was added, followed by incubation for 18 h in a CO2 incubator. Assays to measure the antagonistic activity were performed in a total volume of 100 μl in 96 well plates. Either H5WT peptide (SEQ ID NO:8), bP#447 peptide (SEQ ID NO:11), or control peptide (SEQ ID NO:10) was added to cells containing 0.003 μM of bovine GH and incubated at 37° C. for 18 h in a CO2 incubator. Proliferation assays were performed using WST-1 reagent. The WST-1 tetrazolium salt (light red color) is cleaved to formazan (dark red color) by the succinate-tetrazolium reductase system, which is active only in viable cells. […] Ten microliters of WST-1 reagent was added and the plates incubated for 1–4 h 37° C. Proliferation was measured by absorbance at 450 nm.

rGHBP [2] = molecular target: T2, rGHBP (Rattus norvegicus, UniProt P16310); experiment: Phage ELISA binding and competition on rGHBP coated wells; conditions: for ELISA Competition, rGHBP, +BSA / ELISA Competition, rGHBP, +bGH / ELISA Competition, rGHBP, none: ELISA signal; for ELISA Competition, rGHBP, +BSA: BSA 1 μM; for ELISA Competition, rGHBP, none: no competitor; for clone binding blocked by GH: GH 1 μM, bovine GH on rat GHBP wells, huGH on ‘hu’ GHBP wells
T2 construct: 1–48 of GHBP; The 3′ oligo used for this reaction encoded the mutation L43R (CTG→AGA); The second PCR reaction amplified the DNA encoding amino acids 38–260; 6xHis; made in house
T2 sequence (P16310 19-278 isoform P16310-2): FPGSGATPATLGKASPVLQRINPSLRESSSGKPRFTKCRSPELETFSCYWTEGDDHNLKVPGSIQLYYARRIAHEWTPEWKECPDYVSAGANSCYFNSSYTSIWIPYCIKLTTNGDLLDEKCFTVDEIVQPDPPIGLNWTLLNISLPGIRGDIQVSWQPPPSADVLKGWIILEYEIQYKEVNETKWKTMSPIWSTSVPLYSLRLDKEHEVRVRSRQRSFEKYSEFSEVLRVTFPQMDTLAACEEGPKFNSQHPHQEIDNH
Method: For analysis of individual clones, colonies were picked and phage prepared as described above. Microtiter wells were coated and blocked as described above. Wells were coated with either rGHBP or a control IgG MAb. Phage resuspended in MPBS were added to duplicate wells (100 μl/well) and incubated at room temperature for 1 hr. The phage solution was then removed, and the wells were washed three times with PBS at room temperature. Anti-M13 antibody conjugated to horseradish peroxidase (Pharmacia Biotech) was diluted 1:3000 in MPBS and added to each well (100 μl/well). Incubation was for another hour at room temperature, followed by PBS washes as described. Color was developed by addition of ABTS solution (100 μl/well; Boehringer). Color development was stopped by adjusting each well to 0.5% SDS. Plates were analyzed at 405 nm using a SpectraMax 340 plate reader (Molecular Devices) and SoftMax Pro software. Data points were averaged after subtraction of appropriate blanks. A clone was considered “positive” if the A405 of the well was >2-fold over background. […]
These clones were next analyzed for binding to the receptor's active sites (FIG. 2B). Competitions of phage binding were done both with the cognate ligand (i.e., GH) and with a specific target-neutralizing MAb 2C3 (Wang, B. S., et al. Mol. Cellular Endocrinology, vol. 116, p. 223–226, 1996).
(§1) Clones were tested for the presence of E-tag and binding to ‘hu’ GHBP, rGHBP, or BSA-coated wells. Those having specific GHBP binding (i.e., at least 2 fold greater binding to the GHBP than BSA) and with an E-tag positive signal were subjected to DNA sequencing. Three different clones were isolated and tested a second time against GHBP plus and minus GH (1 μM) or BSA (1 μM) coated wells as described. In these tests, huGH was used as competitor with ‘hu’ GHBP coated wells and bovineGH was used as a competitor with rat GHBP coated wells. […] The following open reading frame insertion including the DYKD (SEQ ID NO:79) amino terminal tag and up to the C-terminal E-tag was obtained for these clones; and is shown in Table III: […]

[3] = molecular target: T3, ‘hu’ GHBP (humanized rat GHBP) (Rattus norvegicus, UniProt P16310, L61R); experiment: Phage ELISA binding and competition on 'hu' GHBP coated wells; conditions: ELISA signal; for ELISA Competition, ‘hu’GHBP, +BSA: BSA 1 μM; for ELISA Competition, ‘hu’GHBP, +hGH: huGH 1 μM as competitor; for ELISA Competition, ‘hu’GHBP, none: no competitor
T3 construct: 1–48 of GHBP; The 3′ oligo used for this reaction encoded the mutation L43R (CTG→AGA); The second PCR reaction amplified the DNA encoding amino acids 38–260; 6xHis; made in house
T3 sequence (P16310 19-278 isoform P16310-2 L61R): T2 sequence (P16310 19-278 isoform P16310-2) with L43R
Method: For analysis of individual clones, colonies were picked and phage prepared as described above. Microtiter wells were coated and blocked as described above. Wells were coated with either rGHBP or a control IgG MAb. Phage resuspended in MPBS were added to duplicate wells (100 μl/well) and incubated at room temperature for 1 hr. The phage solution was then removed, and the wells were washed three times with PBS at room temperature. Anti-M13 antibody conjugated to horseradish peroxidase (Pharmacia Biotech) was diluted 1:3000 in MPBS and added to each well (100 μl/well). Incubation was for another hour at room temperature, followed by PBS washes as described. Color was developed by addition of ABTS solution (100 μl/well; Boehringer). Color development was stopped by adjusting each well to 0.5% SDS. Plates were analyzed at 405 nm using a SpectraMax 340 plate reader (Molecular Devices) and SoftMax Pro software. Data points were averaged after subtraction of appropriate blanks. A clone was considered “positive” if the A405 of the well was >2-fold over background.
Humanized GHBP (‘hu’ GHBP) contained the single amino acid change of rat GHBP amino acids L43 to R43, and was capable of binding human GH, as shown in FIG. 9. Direct immobilization of ‘hu’ GHBP was done as described earlier for panning of the secondary H5 library against rat GHBP and used inputs of ‘hu’ GHBP, prepared as described earlier of 100 μl per well of […] protein. Panning was performed with or without H10 peptide (SEQ ID NO:9; 30 μM) for 4 rounds, and 96 clones were picked.
as §1

rGHBP [4] = molecular target: T2, rGHBP; experiment: Species specificity of binding by ELISA and BIAcore, rGHBP; conditions: in words
Method: (§2) Wells were coated with either recombinant rGHBP or ‘hu’ GHBP (100 ng/well). Additions of H5 (SEQ ID NO:8) and H10 (SEQ ID NOS:9, 80, and 81) phage (10^10/well) and detection were made as described. […] Streptavidin chips were coated with H5 (SEQ ID NO:8) to 1100 RU as described and rGHBP or ‘hu’ GHBP (500 μg/ml) injected as 30 μl samples.
(§3) Growth hormone receptors from different species bind human GH as well as their own GH, however human GHR only binds human or monkey GH. […] The sequence of rGHBP was altered by PCR to create a “humanized” version (‘hu’ GHBP; FIG. 9A). Partially purified ‘hu’GHBP (FIG. 9B) was tested for binding using ELISA and BIAcore analysis. […] This was confirmed by BIAcore analysis (FIG. 10B).
(§4) The biotinylated control peptide (SEQ ID NO:10) was immobilized onto one flow cell of a SA-5 (streptavidin coated) sensor chip to a final density of 700 RU. On a second flow cell, either hGH (1100 RU final density), H5WT peptide (SEQ ID NO:8; 1100 RU final density), or bGH (730 RU final density) was immobilized. GHBP (either rat or humanized) was injected at a concentration of 500 μg/ml with a flow rate of 5 μl/min. Background binding to the control surface was subtracted prior to further analysis.

‘hu’ GHBP = molecular target: T4, ‘hu’ GHBP (Rattus norvegicus, UniProt P16310, L61R); experiment: Species specificity of binding by ELISA and BIAcore, 'hu' GHBP; conditions: in words
T4 construct: 1–48 of GHBP; The 3′ oligo used for this reaction encoded the mutation L43R (CTG→AGA); The second PCR reaction amplified the DNA encoding amino acids 38–260; 6xHis; made in house
T4 sequence (P16310 19-278 isoform P16310-2 L61R): T2 sequence (P16310 19-278 isoform P16310-2) with L43R
Method: as §2, §3, §4

Substance	antagonistic activity [1]	ELISA Competition, rGHBP, +BSA (rGHBP [2])	ELISA Competition, rGHBP, +bGH (rGHBP [2]; bovine GH 1 μM as competitor)	ELISA Competition, rGHBP, none (rGHBP [2])	clone binding blocked by GH (rGHBP [2])	ELISA Competition, ‘hu’GHBP, +BSA [3]	ELISA Competition, ‘hu’GHBP, +hGH [3]	ELISA Competition, ‘hu’GHBP, none [3]	binding to rGHBP (rGHBP [4])	binding to ‘hu’ GHBP (‘hu’ GHBP)	ELISA Competition, rGHBP, +BSA (rGHBP [2]; phage concentrated 15×)	ELISA Competition, rGHBP, +bGH (rGHBP [2]; bovine GH 1 μM, phage concentrated 15×)	ELISA Competition, rGHBP, none (rGHBP [2]; phage concentrated 15×)	binding to rGHBP (rGHBP [4]; listed as clone 13)	binding to ‘hu’ GHBP (‘hu’ GHBP; listed as clone 13)	phage binding to rGHBP blocked by GH and MAb 2C3 (rGHBP [2]; competition ELISA of phage binding)
Control peptide: SEQ ID NO:10, contains same amino acids as H5 in randomized order (DYKDWCLTLQPLVWASGGGYCA; control peptide) [reference compound]	no antagonistic activity															
DYKDALLHRSRCVRWGKWVCCLPPVGVGGAQANQGMSVQRFRHC (phage displayed; clone hh peptide)		0.53	0.52	0.55	only clone 13 was blocked by GH	0.37	0.35	0.37	bind to both forms of GHBP	bind to both forms of GHBP						
DYKDAQWWTTlGSNMFVLPGLRGCTFLPPMQCDREIRVFLVVVH (DYKDAQWWTTIGSNMFVLPGLRGCTFLPPMQCDREIRVFLVVVH; phage displayed; clone 13 peptide) [compound 13]					blocked by GH				bind to both forms of GHBP	bind to both forms of GHBP	1.98	0.29	2.01	bound to both human and rat forms of GHBP	bound to both human and rat forms of GHBP	
H10: frame shifted phage clone without ORF, SEQ ID NOS:9, 80 and 81, binds rGHBP outside the active site (WLGCYFVAGVVACV; H10 peptide)		0.52	0.48	0.52		0.29	0.28	0.30	bound to rGHBP	bound to rGHBP and ‘hu’ GHBP						not blocked by either GH or MAb 2C3
